Assay results published in patent publication CN114106159A (ANYUAN MEDICINE SCIENCE AND TECH SHANGHAI LIMITED COMPANY, dated 2022).

B1: 鼠源抗体S1B-91-3 (murine monoclonal antibody against SARS-CoV-2 S1) (antibody, V domains shown)
VH: QVQLQQSGPQLVRPGASVKISCKASGYSFTDYWLHWVKQRPGQGLEWIGMLDPSDGETRLNQKFKDKATLTVDKSSTTAYMQLSSPTSEDSAVYYCARRHFGYDFDYWGQGTTLTVSS
VL: DIVMTQAAPSVPVTPGESVSISCRSSKSLLHSNGNTYLYWFLQRPGQSPQLLIYRMSNLASGVPDRFSGSGSGTAFTLRISRVEAEDVGVYYCMQHLEYPLTFGGGTKLEVK
notes: also called 鼠源单抗S1B-91-3; 鼠抗S1B-91-3
B2: 人源化抗体hS1B-91-3 (humanized antibody) (antibody, V domains shown)
VH: EVQLVQSGAEVKKPGSSVKVSCKASGYSFTDYWLHWVRQAPGQGLEWIGMLDPSDGETRLNQKFKDKATLTVDKSTTTAYMQLSSLRSEDTAVYYCARRHFGYDFDYWGQGTTVTVSS
VL: DIVMTQSPSSLPVTPGQPASISCRSSKSLLHSNGNTYLYWFLQKPGKSPQLLIYRMSNLASGVPDRFSGSGSGTDFTLKISRVEAEDVGVYYCMQHLEYPLTFGGGTKVEIKR
notes: also called 人源化单克隆抗体hS1B-91-3

How the values were obtained:
[1] = biological target: T1, SARS-CoV S1蛋白 (ACRO Biosystems) (SARS-CoV, UniProt P59594 14-667); assay: indirect ELISA, SARS-CoV S1 coated at 0.1 μg/mL
T1 construct: domain: S1

[2] = biological target: T2, 刺突S蛋白-鼠Fc融合蛋白 (S-mFc) (SARS-CoV-2; mouse, UniProt P0DTC2 14-1213); assay: flow cytometry, blocking of S-mFc binding to 293T-ACE2 cells
T2 construct: domain: S蛋白全长区段

[3] = biological target: T3, SARS-CoV-2 S1蛋白 (ACRO Biosystems) (SARS-CoV-2, UniProt P0DTC2 16-685); assay: competition ELISA, coated SARS-CoV-2 S1, HRP-hACE2-Fc as competitor
T3 construct: domain: S1

Binder | binding result [1] | IC50 [2] | EC50 [3]
B1 | no binding | 0.0137 µg/mL | 
B2 |  | 0.00813 µg/mL | 0.0738 µg/mL
